Source: patent publication US20230059836A1 (NANJING LEGEND BIOTECH, published 2023)

B1: BCP-73 (bispecific antibody)
chain 1: not shown
chain 2: EIVLTQSPATLSLSPGERATLSCRASKGVSTSGYSYLHWYQQKPGQAPRLLIYLASYLESGVPARFSGSGSGTDFTLTISSLEPEDFAVYYCQHSRDLPLTFGGGTKVEIKRTVAAPSVFIFPPSDEQLKSGTASVVCLLNNFYPREAKVQWKVDNALQSGNSQESVTEQDSKDSTYSLSSTLTLSKADYEKHKVYACEVTHQGLSSPVTKSFNRGEC
B2: BCP-74 (bispecific antibody)
chain 1: not shown
chain 2: B1 chain 2
B3: BCP-75 (bispecific antibody)
chain 1: not shown
chain 2: B1 chain 2
B4: BCP-78 (bispecific antibody)
chain 1: EVQLVESGGGVVQPGRSLRLSCAASGRTITTITMGWFRQAPGKGREFVASHSWTDNNPYYADSVKGRFTISRDNAKNTLYLQMNSLRPEDTAVYYCAATARRSFVGRQWYTEARQYDYWGQGTLVTVSSEPKSSDKTHTSPPSPQVQLVESGGGVVQPGRSLRLDCKASGITFSNSGMHWVRQAPGKGLEWVAVIWYDGSKRYYADSVKGRFTISRDNSKNTLFLQMNSLRAEDTAVYYCATNDDYWGQGTLVTVSSASTKGPSVFPLAPCSRSTSESTAALGCLVKDYFPEPVTVSWNSGALTSGVHTFPAVLQSSGLYSLSSVVTVPSSSLGTKTYTCNVDHKPSNTKVDKRVESKYGPPCPPCPAPEFLGGPSVFLFPPKPKDTLMISRTPEVTCVVVDVSQEDPEVQFNWYVDGVEVHNAKTKPREEQFNSTYRVVSVLTVLHQDWLNGKEYKCKVSNKGLPSSIEKTISKAKGQPREPQVYTLPPSQEEMTKNQVSLTCLVKGFYPSDIAVEWESNGQPENNYKTTPPVLDSDGSFFLYSRLVDKSRWQEGNVFSCSVMHEALHNHYTQKSLSLSLGK
chain 2: not shown

Target: CTLA-4-Fc (GenScript, Z03373-50) (UniProt P16410 36-161)
Sequence (P16410 36-161 limits assumed, one chain of several): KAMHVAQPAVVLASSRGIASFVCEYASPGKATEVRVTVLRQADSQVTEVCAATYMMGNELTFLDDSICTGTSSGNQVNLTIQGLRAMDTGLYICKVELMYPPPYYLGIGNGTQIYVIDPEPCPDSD
Assay: cell-based or functional assay

| EC50 (nM), IL-2 secretion, CD4+ T cells with CHO-K1/human CD80 and CTLA-4-Fc | Binder |
| --- | --- |
| 12.1 nM | B1 |
| 14.3 nM | B2 |
| 12.1 nM | B3 |
| 8.4 nM | B4 |

Target: human PD-1 expressed on CHO cells (human, UniProt Q15116 25-288)
Sequence (Q15116 25-288): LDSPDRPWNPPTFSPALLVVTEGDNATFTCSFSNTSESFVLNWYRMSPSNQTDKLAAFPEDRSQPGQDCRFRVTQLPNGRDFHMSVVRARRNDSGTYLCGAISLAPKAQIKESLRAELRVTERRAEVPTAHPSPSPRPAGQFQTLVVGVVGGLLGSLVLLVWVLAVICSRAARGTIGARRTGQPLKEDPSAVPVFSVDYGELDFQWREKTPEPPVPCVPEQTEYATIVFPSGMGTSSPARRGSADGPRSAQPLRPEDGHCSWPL
Assay: cell-based or functional assay

| EC50 (nM), NFAT luciferase, PD-1/NFAT Reporter-Jurkat cells with CHO-K1 expressing human PD-L1 and TCR activator | Binder |
| --- | --- |
| 1.6 nM | B1 |
| 4.3 nM | B2 |
| 5.5 nM | B3 |
| 8.9 nM | B4 |
